The text below walks through data of PMC9621272.

The target of experiment [1] is Trypsin (UniProt P00760).
For experiment [2], the target named is Trypsin (UniProt P00760). This is another data set of the same source.

Sequence of UniProt P00760 (P00760 18-246): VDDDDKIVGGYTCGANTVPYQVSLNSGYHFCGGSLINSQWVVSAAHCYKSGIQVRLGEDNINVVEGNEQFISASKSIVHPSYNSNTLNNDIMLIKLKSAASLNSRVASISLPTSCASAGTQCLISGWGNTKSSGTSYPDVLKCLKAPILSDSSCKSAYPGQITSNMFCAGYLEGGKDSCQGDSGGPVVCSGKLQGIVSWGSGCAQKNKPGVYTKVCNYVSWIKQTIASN

The substance “trypsin inhibitor isolated from tamarind seeds (natural protein)” showed an antitrypsin activity (%) of the eluate from Trypsin-Sepharose in the experiment with Trypsin [1] of 97%. For the same substance, in the experiment with Trypsin [2], the antitrypsin activity (%), substrate BApNa 1.25 mM, TTI 0.7 mg/mL after the gastric phase of simulated digestion (TTI remained intact) was 96.6% and the antitrypsin activity (%), substrate BApNa 1.25 mM, TTI intact 0.7 mg/mL, no digestion is 96.3%.
